# Test results reported in patent US20230014151A1, “COMBINATION ANTIVIRAL THERAPY FOR MEASLES” (The Trustees of Columbia University in the City of New York, priority 2019, published 2023).
# Where two headings read alike, the source gives them in different places. Numbered stars: 1 amine (or outer) side, 2 acyl side, 3 side chain; on linkers, the order of the positions; unused ones are H or OH. Bridge positions count the residues as written; N and C are the ends. Square brackets hold non-standard residues; d marks the D form. Ends that are not written are not given here. Peptide text beside a SMILES is read from it. I, II: the chains in the order shown. * marks the point of attachment. X1 = CC(C)CCC[C@@H](C)[C@H]1CC[C@H]2[C@@H]3CC=C4C[C@@H](OCCN(CCNC(=O)CCOCCOCCOCCOCCNC(=O)CCCN5C(=O)CC([*:1])C5=O)CCNC(=O)CCOCCOCCOCCOCCNC(=O)CCCN5C(=O)CC([*:2])C5=O)CC[C@]4(C)[C@H]3CC[C@]12C; X2 = O=C(CCN1C(=O)CC([*:1])C1=O)NCCOCCOCCOCCOCCOCCOCCOCCOCCOCCOCCOCCNC(=O)CCN1C(=O)CC([*:2])C1=O; Cbz = O=C(OCc1ccccc1)*
# Experiments:
# [1] = tested on: vesicular stomatitis virus (VSV); conditions: 16 h
# [2] = target: viral glycoproteins (H and F); CD150; assay: beta-galactosidase complementation-based fusion assay, CD150 target cells; conditions: for IC90: read-out: CD150 IC90
# [3] = target: viral glycoproteins (H and F); Nectin-4 (Measles virus, UniProt Q786F3); assay: beta-galactosidase complementation-based fusion assay, Nectin-4 target cells; conditions: for IC90: read-out: Nectin4 IC90
# [4] = target: measles virus (MeV) fusion protein F, wild type, expressed on cells (measles virus) (UniProt Q786F3); assay: cell-based or functional assay
# [5] = target: measles virus (MeV) fusion protein F, wild type, expressed on cells (measles virus) (UniProt Q786F3); assay: cell-based or functional assay; remark: listed apart in the source
compound,measurement,setting,value
CC[C@H](C)[C@H](NC(=O)[C@H](CC(C)C)NC(=O)[C@H](CO)NC(=O)[C@H](Cc1c[nH]cn1)NC(=O)[C@@H](NC(=O)[C@H](CC(C)C)NC(=O)[C@H](CO)NC(=O)[C@@H](NC(=O)[C@H](Cc1ccc(O)cc1)NC(=O)[C@H](CC(N)=O)NC(=O)[C@H](CC(N)=O)NC(=O)[C@@H](NC(=O)[C@H](CCC(=O)O)NC(=O)[C@H](CCCNC(=N)N)NC(=O)[C@H](CC(=O)O)NC(=O)[C@H](Cc1c[nH]c2ccccc12)NC(=O)[C@H](CCC(=O)O)NC(=O)[C@H](CCSC)NC(=O)[C@H](Cc1c[nH]c2ccccc12)NC(=O)CNC(=O)[C@H](CO)NC(=O)CNC(=O)[C@H](CO)NC(=O)CNC(=O)CNC(=O)[C@H](Cc1ccccc1)NC(=O)[C@@H](Cc1ccccc1)NC(=O)OCc1ccccc1)[C@@H](C)CC)[C@@H](C)O)[C@@H](C)CC)C(=O)N[C@@H](CCC(=O)O)C(=O)N[C@@H](CCC(=O)O)C(=O)N[C@@H](CO)C(=O)N[C@@H](CCC(N)=O)C(=O)N[C@@H](CC(N)=O)C(=O)N[C@@H](CCC(N)=O)C(=O)N[C@@H](CCC(N)=O)C(=O)N[C@@H](CCC(=O)O)C(=O)N[C@@H](CCCCN)C(=O)N[C@@H](CC(N)=O)C(=O)N[C@@H](CCC(=O)O)C(=O)N[C@@H](CCC(N)=O)C(=O)N[C@@H](CCC(=O)O)C(=O)N[C@@H](CC(C)C)C(=O)N[C@@H](CC(C)C)C(=O)NCC(=O)N[C@@H](CO)C(=O)NCC(=O)N[C@@H](CO)C(=O)NCC(=O)N[C@@H](CSC1CC(=O)N(CCCC(=O)NCCOCCOCCOCCOCCC(=O)NCCN(CCNC(=O)CCOCCOCCOCCOCCNC(=O)CCCN2C(=O)CC(SC[C@H](NC(=O)CNC(=O)[C@H](CO)NC(=O)CNC(=O)[C@H](CO)NC(=O)CNC(=O)[C@H](CC(C)C)NC(=O)[C@H](CC(C)C)NC(=O)[C@H](CCC(=O)O)NC(=O)[C@H](CCC(N)=O)NC(=O)[C@H](CCC(=O)O)NC(=O)[C@H](CC(N)=O)NC(=O)[C@H](CCCCN)NC(=O)[C@H](CCC(=O)O)NC(=O)[C@H](CCC(N)=O)NC(=O)[C@H](CCC(N)=O)NC(=O)[C@H](CC(N)=O)NC(=O)[C@H](CCC(N)=O)NC(=O)[C@H](CO)NC(=O)[C@H](CCC(=O)O)NC(=O)[C@H](CCC(=O)O)NC(=O)[C@@H](NC(=O)[C@H](CC(C)C)NC(=O)[C@H](CO)NC(=O)[C@H](Cc3c[nH]cn3)NC(=O)[C@@H](NC(=O)[C@H](CC(C)C)NC(=O)[C@H](CO)NC(=O)[C@@H](NC(=O)[C@H](Cc3ccc(O)cc3)NC(=O)[C@H](CC(N)=O)NC(=O)[C@H](CC(N)=O)NC(=O)[C@@H](NC(=O)[C@H](CCC(=O)O)NC(=O)[C@H](CCCNC(=N)N)NC(=O)[C@H](CC(=O)O)NC(=O)[C@H](Cc3c[nH]c4ccccc34)NC(=O)[C@H](CCC(=O)O)NC(=O)[C@H](CCSC)NC(=O)[C@H](Cc3c[nH]c4ccccc34)NC(=O)CNC(=O)[C@H](CO)NC(=O)CNC(=O)[C@H](CO)NC(=O)CNC(=O)CNC(=O)[C@H](Cc3ccccc3)NC(=O)[C@@H](Cc3ccccc3)NC(=O)OCc3ccccc3)[C@@H](C)CC)[C@@H](C)O)[C@@H](C)CC)[C@@H](C)CC)C(=O)O)C2=O)CCO[C@H]2CC[C@@]3(C)C(=CC[C@H]4[C@@H]5CC[C@H]([C@H](C)CCCC(C)C)[C@@]5(C)CC[C@@H]43)C2)C1=O)C(=O)O (some centres unmarked) [FIP HIV],IC50,[1],> 5000 nM
O=C(CCN1C(=O)CC(SC[C@H](NC(=O)CNC(=O)[C@H](CO)NC(=O)CNC(=O)[C@H](CO)NC(=O)CNC(=O)CNC(=O)[C@H](Cc2ccccc2)NC(=O)[C@@H](Cc2ccccc2)NC(=O)OCc2ccccc2)C(=O)O)C1=O)NCCOCCOCCOCCOCCOCCOCCOCCOCCOCCOCCOCCNC(=O)CCN1C(=O)CC(SC[C@H](NC(=O)CNC(=O)[C@H](CO)NC(=O)CNC(=O)[C@H](CO)NC(=O)CNC(=O)CNC(=O)[C@H](Cc2ccccc2)NC(=O)[C@@H](Cc2ccccc2)NC(=O)OCc2ccccc2)C(=O)O)C1=O (some centres unmarked) [[FIP]2-peg11] (I: Cbz-[dF]FGGSGSGC-OH / II: Cbz-[dF]FGGSGSGC-OH; linker I:9-II:9 via X2),IC50,[2],> 1000 nM
same,IC90,[2],> 1000 nM
same,IC50,"[3]; Nectin4 IC50, Table 3 (extended version)",> 10000 nM
same,IC90,[3],> 10000 nM
CC(C)CCC[C@@H](C)[C@H]1CC[C@H]2[C@@H]3CC=C4C[C@@H](OC(=O)CCOCCOCCOCCOCCOCCOCCOCCOCCOCCOCCOCCOCCOCCOCCOCCOCCOCCOCCOCCOCCOCCOCCOCCOCCNC(=O)CSC[C@H](NC(=O)CNC(=O)[C@H](Cc5ccccc5)NC(=O)[C@@H](Cc5ccccc5)NC(=O)OCc5ccccc5)C(=O)O)CC[C@]4(C)[C@H]3CC[C@]12C [peg24 chol [FIP] (no GSGSG)],IC90,[2],544 ± 34.8 nM
same,IC90,[3],568 ± 186 nM
FIP-HRC450-485 (peptide),"IC50, beta-galactosidase complementation-based fusion assay, Nectin-4 target cells",[4],4240 nM
same,"IC90, beta-galactosidase complementation-based fusion assay, Nectin-4 target cells",[5],> 10000 nM
FIP-HRC450-485-chol (peptide),"IC50, beta-galactosidase complementation-based fusion assay, Nectin-4 target cells",[4],214 nM
same,"IC90, beta-galactosidase complementation-based fusion assay, Nectin-4 target cells",[4],614 nM
same,"IC50, beta-galactosidase complementation-based fusion assay, Nectin-4 target cells",[5],251 nM
same,"IC90, beta-galactosidase complementation-based fusion assay, Nectin-4 target cells",[5],446 nM
FIP-HRC450-485-peg4-chol (peptide),"IC50, beta-galactosidase complementation-based fusion assay, Nectin-4 target cells",[4],214 nM
same,"IC90, beta-galactosidase complementation-based fusion assay, Nectin-4 target cells",[4],614 nM
FIP-chol (peptide),"IC50, beta-galactosidase complementation-based fusion assay, Nectin-4 target cells",[4],4000 nM
same,"IC90, beta-galactosidase complementation-based fusion assay, Nectin-4 target cells",[4],7620 nM
same,"IC50, beta-galactosidase complementation-based fusion assay, Nectin-4 target cells",[5],> 10000 nM
same,"IC90, beta-galactosidase complementation-based fusion assay, Nectin-4 target cells",[5],> 10000 nM
FIP-peg4-chol (peptide),"IC50, beta-galactosidase complementation-based fusion assay, Nectin-4 target cells",[4],4000 nM
same,"IC90, beta-galactosidase complementation-based fusion assay, Nectin-4 target cells",[4],7620 nM
HRC450-485 (peptide),"IC50, beta-galactosidase complementation-based fusion assay, Nectin-4 target cells",[4],> 10000 nM
same,"IC90, beta-galactosidase complementation-based fusion assay, Nectin-4 target cells",[4],> 10000 nM
HRC450-485-chol (peptide),"IC90, beta-galactosidase complementation-based fusion assay, Nectin-4 target cells",[4],> 7000 nM
same,"IC50, beta-galactosidase complementation-based fusion assay, Nectin-4 target cells",[5],103 nM
same,"IC90, beta-galactosidase complementation-based fusion assay, Nectin-4 target cells",[5],> 1000 nM
HRC450-485-peg4-chol (peptide),"IC50, beta-galactosidase complementation-based fusion assay, Nectin-4 target cells",[4],123 nM
same,"IC90, beta-galactosidase complementation-based fusion assay, Nectin-4 target cells",[4],856 nM
I: Cbz-[dF]FGGSGSGVALDPIDISIVLNKIKSDLEESKEWIRRSNKILDSIGSGSGC / II: Cbz-[dF]FGGSGSGVALDPIDISIVLNKIKSDLEESKEWIRRSNKILDSIGSGSGC (linker I:50-II:50 via X1; N-terminus assumed) [FIP VI KI],IC50,[1],> 5000 nM
